± gives the uncertainty stated by the source.
Test: self-splicing fitness, log relative to wild type (ln ratio); higher = more splicing; Tetrahymena group I intron in knt gene, E. coli kanamycin selection, DiMSum; sequences stand for … in CUCUCU…GGAGGGAAAAGUUAUCAGGCAUGCACCUGGUAGCUAGUCUUUAAACCAAUAGAUUGCAUCGGUUUAAAAGGCAAGACCGUCAAAUUGCGGGAAAGGGGUCAACAGCCGUUCAGUACCAAGUCUCAGGGGAAACUUUGAGAUGGCCUUGCAAAGGGUAUGGUAAUAAGCUGACGGACAUGGUCCUAACCACGCAGCCAAGUCCUAAGUCAACAGAUCUUCUGUUGAUAUGGAUGCAGUUCACAGACUAAAUGUCGGUCGGGGAAGAUGUAUUCUUCUCAUAAGAUAUAGUCGGACCUCUCCUUAAUGGGAGCUAGCGGAUGAAGUGAUGCAACACUGGAGCCGCUGGGAACUAAUUUGUAUGCGAAAGUAUAUUGAUUAGUUUUGGAGUACUCGUGGUCG
Summary of the method: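 Colonies from six replicate transformations of E. coli BL21(DE3) were pooled and amplicon-sequenced on an Illumina HiSeq 2500. The library placed an intron with all eight P1ex-region nucleotides randomised inside the knt kanamycin-resistance gene on pET-22b(+), and cells grew overnight at 37°C or 30°C on LB agar with or without 25 μg/mL kanamycin (plus 100 μg/mL carbenicillin, 50 μM IPTG, 0.2% rhamnose). Fitness is the DiMSum error-weighted combination of wild-type-normalised replicate fold changes, kanamycin versus none.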

| Sequence | self-splicing fitness (ln) (30 °C) | self-splicing fitness (ln) (37 °C) |
| --- | --- | --- |
| CGUAAGCAAUAUUACGUUCG | -0.989 ± 0.056 | -0.453 ± 0.078 |
| CGUAAGCAAUAUUACGUUGA | -3.23 ± 0.19 | -2.58 ± 0.18 |
| CGUCAGCAAUAUUACGACUA | -0.58 ± 0.13 | 0.632 ± 0.18 |
| CGUCAGCAAUAUUACGACUC | -0.282 ± 0.11 | 0.339 ± 0.16 |
| CGUCAGCAAUAUUACGCCCG | -1.23 ± 0.17 | -0.0073 ± 0.24 |
| CGUCAGCAAUAUUACGCCUC |  | -3.1 ± 0.34 |
| CGUCAGCAAUAUUACGCCUG | -0.469 ± 0.099 | 0.582 ± 0.12 |
| CGUCAGCAAUAUUACGCGAC | -2.57 ± 0.49 |  |
| CGUCAGCAAUAUUACGCGAU | -3.23 ± 0.29 | -1.76 ± 0.42 |
| CGUCAGCAAUAUUACGCGUA | -1.93 ± 0.18 | -0.985 ± 0.12 |
| CGUCAGCAAUAUUACGCUGA | -2.3 ± 0.3 | -1.89 ± 0.33 |
| CGUCAGCAAUAUUACGGACA | -0.0785 ± 0.094 | 0.394 ± 0.15 |
| CGUCAGCAAUAUUACGGAUU | -1.35 ± 0.1 | -0.245 ± 0.1 |
| CGUCAGCAAUAUUACGGUAC | -3.64 ± 0.31 | -1.89 ± 0.27 |
| CGUCAGCAAUAUUACGUGCU | -3.04 ± 0.26 | -2.39 ± 0.27 |
| CGUCAGCAAUAUUACGUGUA | -3.11 ± 0.099 | -1.66 ± 0.083 |
| CGUCAGCAAUAUUACGUUGA | -3.04 ± 0.26 | -2.26 ± 0.19 |
| CGUCAGCAAUAUUACGUUGC | -3.95 ± 0.26 | -2.89 ± 0.18 |
| CGUGAGCAAUAUUACGAAUU |  | -0.866 ± 0.17 |
| CGUGAGCAAUAUUACGACUA | -2.94 ± 0.47 | -1.94 ± 0.36 |
| CGUGAGCAAUAUUACGAGUA |  | -0.918 ± 0.47 |
| CGUGAGCAAUAUUACGCCAA | -3.41 ± 0.36 |  |
| CGUGAGCAAUAUUACGCGUA |  | -1.86 ± 0.47 |
| CGUGAGCAAUAUUACGCGUC | -3.12 ± 0.31 |  |
| CGUGAGCAAUAUUACGCUCA | -2.84 ± 0.31 |  |
| CGUGAGCAAUAUUACGCUUU | -2.54 ± 0.35 | -1.98 ± 0.28 |
| CGUGAGCAAUAUUACGGAAA | -2.27 ± 0.3 | -1.14 ± 0.27 |

| Sequence | self-splicing fitness (ln) (30 °C) | self-splicing fitness (ln) (37 °C) |
| --- | --- | --- |
| CGUGAGCAAUAUUACGGAUA | -3.1 ± 0.3 | -2.71 ± 0.34 |
| CGUGAGCAAUAUUACGGUCG | -1.17 ± 0.083 | -0.688 ± 0.13 |
| CGUGAGCAAUAUUACGUACA | -1.46 ± 0.053 | -0.707 ± 0.059 |
| CGUGAGCAAUAUUACGUAGG | -1.12 ± 0.089 | -1.39 ± 0.12 |
| CGUGAGCAAUAUUACGUGAC | -4.11 ± 0.36 |  |
| CGUGAGCAAUAUUACGUGUC | -3 ± 0.4 | -3.04 ± 0.43 |
| CGUGAGCAAUAUUACGUGUG | -1.39 ± 0.1 | -0.501 ± 0.1 |
| CGUGAGCAAUAUUACGUUUG | -2.04 ± 0.12 | -1.5 ± 0.21 |
| CGUUAGCAAUAUUACGAAGA | -2.24 ± 0.29 |  |
| CGUUAGCAAUAUUACGAAUA | -1.54 ± 0.17 | -1.69 ± 0.36 |
| CGUUAGCAAUAUUACGACCC | -2.92 ± 0.43 |  |
| CGUUAGCAAUAUUACGAGGG | -3.63 ± 0.47 | -0.739 ± 0.19 |
| CGUUAGCAAUAUUACGCAAG | -1.97 ± 0.13 | -1.18 ± 0.14 |
| CGUUAGCAAUAUUACGCCUG | -0.175 ± 0.085 | 0.664 ± 0.1 |
| CGUUAGCAAUAUUACGCGCA | -1.01 ± 0.29 | -0.131 ± 0.47 |
| CGUUAGCAAUAUUACGCUUU |  | -2.41 ± 0.3 |
| CGUUAGCAAUAUUACGGCCU | -1.53 ± 0.15 | -1.26 ± 0.23 |
| CGUUAGCAAUAUUACGGGAU |  | -2.25 ± 0.26 |
| CGUUAGCAAUAUUACGGGGU | -3.72 ± 0.24 | -2.03 ± 0.35 |
| CGUUAGCAAUAUUACGGUCG | -1.03 ± 0.11 | 0.369 ± 0.12 |
| CGUUAGCAAUAUUACGUCGU |  | -1.81 ± 0.33 |
| CGUUAGCAAUAUUACGUGGC | -2.5 ± 0.25 | -2.75 ± 0.25 |
| CGUUAGCAAUAUUACGUGUG | -0.838 ± 0.062 | -1.12 ± 0.08 |
| CGUUAGCAAUAUUACGUUGG | -1.45 ± 0.091 | -0.573 ± 0.12 |
| CUAAAGCAAUAUUACGAAAG | 0.0922 ± 0.092 | 0.21 ± 0.12 |
| CUAAAGCAAUAUUACGACUA | -2.79 ± 0.21 | -1.78 ± 0.17 |
